Article PMC11997057, “PIN1-SUMO2/3 motif suppresses excessive RNF168 chromatin accumulation and ubiquitin signaling to promote IR resistance” (Nature Communications, 2025)
Values belong to the molecule of their own block, whether it stands above or below them. Non-standard residues stand in square brackets, D forms with d. No end group written: not given here. pT = C[C@@H](OP(=O)(O)O)[C@H](N)C(=O)O

What was measured:
PIN1 WW domain = PIN1 WW domain (UniProt Q13526); test: GST pull-down from cell lysate; details: reference: myc-RNF168 wild type; sites T208
PIN1 = PIN1 (UniProt Q13526); test: native mass spectrometry, 1:5 protein:peptide; details: reference: unphosphorylated peptide; sites T208
[1] = target: T1, full-length PIN1 (recombinant, tag cleaved) (UniProt Q13526 1-163); test: native MS; PIN1 2.5 uM and peptide 12.5 uM (1:5 molar ratio) incubated on ice in 100 mM ammonium acetate pH 6.8; nanoelectrospray, positive mode; details: both partners purified
T1 construct: peptidyl-prolyl isomerase PIN1, full length; also called recombinant PIN1; tag-cleaved PIN1; source: E. coli Rosetta 2(DE3) pLysS, auto-induction, purified (IMAC), tag cleaved with TEV protease; not shown: His6, N-terminal, cleaved

binding against the reference (PIN1 WW domain): weaker
Molecule: RNF168 (from UniProt Q8IYW5) T208A

binding against the reference (PIN1): stronger
Molecule: RNF168 204-210 (from UniProt Q8IYW5) pT208 peptide

binding result [1]: binds
B1: phosphorylated RNF168 peptide S204-K210, SDPV(pT)PK (peptide)
peptide: SDPV[pT]PK
notes: end groups not known; also called phospho-RNF168 peptide; pT208-RNF168 peptide; source: synthetic peptide, bought: GenScript Biotech

binding result [1]: binds
B2: unphosphorylated RNF168 peptide S204-K210 (peptide)
peptide: SDPVTPK
notes: end groups not known; also called non-phosphorylated peptide of the T208 motif; source: synthetic peptide, bought: GenScript Biotech
